In article PMC10397247 one finds interaction score data, which are given here for 4 molecules.

In one experiment the target is T1, P5bH1.
T1 chain: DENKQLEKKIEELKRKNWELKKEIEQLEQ
Description: two-hybrid library CCNG1.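 Note: natural log of median RNA to DNA barcode read ratio; higher means stronger binding.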

The next experiment addresses T2, P9bH1.
T2 chain: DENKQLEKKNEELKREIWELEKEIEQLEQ
Description: two-hybrid library CCNG1.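 Note: natural log of median RNA to DNA barcode read ratio; higher means stronger binding.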

In the next experiment the target is T3, P4bH1.
T3 chain: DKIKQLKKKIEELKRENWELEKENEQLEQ
Description: two-hybrid library CCNG1.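 Note: natural log of median RNA to DNA barcode read ratio; higher means stronger binding.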

Another experiment deals with T4, P7bH1.
T4 chain: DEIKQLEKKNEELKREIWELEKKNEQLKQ
Description: two-hybrid library CCNG1.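 Note: natural log of median RNA to DNA barcode read ratio; higher means stronger binding.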

In a further experiment the target is T5, P6bH1.
T5 chain: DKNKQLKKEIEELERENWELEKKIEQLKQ
Description: two-hybrid library CCNG1.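 Note: natural log of median RNA to DNA barcode read ratio; higher means stronger binding.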

In the next experiment the target is T6, P8bH1.
T6 chain: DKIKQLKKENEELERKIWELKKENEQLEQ
Description: two-hybrid library CCNG1.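 Note: natural log of median RNA to DNA barcode read ratio; higher means stronger binding.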

The target of a further experiment is T7, 4H775-AA.
T7 chain: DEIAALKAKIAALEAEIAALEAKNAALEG
Description: two-hybrid library CCmax. As to conditions: mean of both orientations.

The target of the next experiment is T8, 4H2985-AA.
T8 chain: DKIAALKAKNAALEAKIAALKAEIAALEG
Description: two-hybrid library CCmax. As to conditions: mean of both orientations.

Another experiment concerns the target T9, 4H87-AA.
T9 chain: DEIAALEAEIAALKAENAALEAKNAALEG
Description: two-hybrid library CCmax.

The next experiment concerns the target T10, 4H2646-AA.
T10 chain: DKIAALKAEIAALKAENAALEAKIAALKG
Description: two-hybrid library CCmax.

Another experiment has as its target T11, 4H816-AA.
T11 chain: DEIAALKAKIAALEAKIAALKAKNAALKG
Description: two-hybrid library CCmax. As to conditions: mean of both orientations.

For another experiment, the target named is T12, 4H2705-AA.
T12 chain: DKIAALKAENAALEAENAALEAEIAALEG
Description: two-hybrid library CCmax. As to conditions: mean of both orientations.

The target in a further experiment is T13, 4H3409-AA.
T13 chain: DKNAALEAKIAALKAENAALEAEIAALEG
Description: two-hybrid library CCmax. The following applies: mean of both orientations.

A further experiment addresses T14, 4H3940-AA.
T14 chain: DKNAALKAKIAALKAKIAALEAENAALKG
Description: two-hybrid library CCmax. As to conditions: mean of both orientations.

A further experiment has as its target T15, 4H2687-AA.
T15 chain: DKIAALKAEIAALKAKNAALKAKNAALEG
Description: two-hybrid library CCmax. The following applies: mean of both orientations.

For the next experiment, the target named is T16, 4H3134-AA.
T16 chain: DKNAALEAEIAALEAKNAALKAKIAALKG
Description: two-hybrid library CCmax. As to conditions: mean of both orientations.

A further experiment concerns the target T17, 4H510-AA.
T17 chain: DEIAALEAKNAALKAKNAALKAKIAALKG
Description: two-hybrid library CCmax. As to conditions: mean of both orientations.

The target of another experiment is T18, 4H2873-AA.
T18 chain: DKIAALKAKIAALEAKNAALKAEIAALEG
Description: two-hybrid library CCmax. As to conditions: mean of both orientations.

A further experiment has as its target T19, 4H390-AA.
T19 chain: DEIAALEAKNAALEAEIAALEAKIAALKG
Description: two-hybrid library CCmax. As to conditions: mean of both orientations.

The target of the next experiment is T20, 4H278-AA.
T20 chain: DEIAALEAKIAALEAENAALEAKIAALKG
Description: two-hybrid library CCmax. The following applies: mean of both orientations.

A further experiment has as its target T21, 4H3625-AA.
T21 chain: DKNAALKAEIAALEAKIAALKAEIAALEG
Description: two-hybrid library CCmax. As to conditions: mean of both orientations.

For another experiment, the target named is T22, 4H2758-AA.
T22 chain: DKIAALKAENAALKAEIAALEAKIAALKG
Description: two-hybrid library CCmax. As to conditions: mean of both orientations.

For the next experiment, the target named is T23, P9mS.
T23 chain: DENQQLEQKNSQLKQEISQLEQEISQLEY
Description: two-hybrid library CCNG1.

Another experiment deals with T24, P8mS.
T24 chain: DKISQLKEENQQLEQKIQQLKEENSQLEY
Description: two-hybrid library CCNG1.

As for DKIKQLKKKIEELKRENWELEKENEQLEQ [P4bH1], the interaction score was -1.09 with P5bH1; -0.46 with P9bH1; -1.18 with P4bH1; -0.994 with P7bH1; -0.487 with P6bH1; -0.993 in the experiment with P8bH1.
On to DENKQLEKKIEELKRKNWELKKEIEQLEQ [P5bH1], for which the interaction score with P5bH1 was -0.609; with P9bH1, -0.9; in the experiment with P7bH1, -2.02; with P6bH1, 1.31; in the experiment with P8bH1, 0.944.
DKIAALKAEIAALKAENAALEAKIAALKG [4H2646-AA]: the interaction score was -0.478 with 4H775-AA; -0.411 in the experiment with 4H2985-AA; 2.43 with 4H87-AA; 1.66 with 4H2646-AA; -1.37 in the experiment with 4H816-AA; -1.19 with 4H2705-AA. The interaction score is -0.0843 in the experiment with 4H3409-AA; -1.27 with 4H3940-AA; 1.36 with 4H2687-AA; 1.28 with 4H3134-AA; 2.02 with 4H510-AA; 1.89 with 4H2873-AA. The interaction score with 4H390-AA was 1.18; with 4H278-AA it was 0.745; with 4H3625-AA it was -0.363; with 4H2758-AA, -0.75.
With DKISQLKEENQQLEQKIQQLKEENSQLEY [P8mS], the interaction score was -0.61 in the experiment with P9mS and -1.02 in the experiment with P8mS.
